Assay results: patent US20250215108A1
Several values for one entry are separate records, joined by “and”; a condition that tells them apart may be missing. Equal entries are not always repeated.

How the values were obtained:
[1] = target: SIRPγ on peripheral human CD3+ T cells (human) (UniProt Q9P1W8); experiment: flow cytometry on peripheral human CD3+ T cells, 10 µg/ml; Exp 1 HV2
[2] = target: SIRPγ on peripheral human CD3+ T cells (human) (UniProt Q9P1W8); experiment: flow cytometry on peripheral human CD3+ T cells, 10 µg/ml; Exp 1 HV1
[3] = target: recombinant hSIRPa-His (Sino Biologicals, reference 11612-H08H) (human) (UniProt P78324); experiment: SPR (Biacore 3000); SIRPa-His immobilised on a CM5 chip (500 RU), antibody injected; 3 min association, 10 min dissociation
[4] = target: recombinant hSIRPa (Sino Biologicals, reference 10975-H08H) (human) (UniProt P78324); experiment: ELISA (ED50), immobilized hSIRPa, anti-mouse Fc detection
recombinant hSIRPa (Sino Biologicals, reference 10975-H08H) (human), sequence (P78324 other isoform, or with tags, fused parts or gaps H08H H08H limits assumed): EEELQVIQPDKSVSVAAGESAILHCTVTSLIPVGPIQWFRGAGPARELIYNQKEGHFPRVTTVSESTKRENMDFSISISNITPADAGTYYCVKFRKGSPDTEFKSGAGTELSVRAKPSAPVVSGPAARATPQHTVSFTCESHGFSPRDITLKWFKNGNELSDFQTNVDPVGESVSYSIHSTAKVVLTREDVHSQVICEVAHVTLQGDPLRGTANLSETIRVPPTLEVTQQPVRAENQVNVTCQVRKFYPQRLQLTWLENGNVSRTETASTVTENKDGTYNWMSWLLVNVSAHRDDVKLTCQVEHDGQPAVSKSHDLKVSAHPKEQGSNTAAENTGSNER

recombinant hSIRPa-His (Sino Biologicals, reference 11612-H08H) (human), sequence (P78324 31-370, form in doubt): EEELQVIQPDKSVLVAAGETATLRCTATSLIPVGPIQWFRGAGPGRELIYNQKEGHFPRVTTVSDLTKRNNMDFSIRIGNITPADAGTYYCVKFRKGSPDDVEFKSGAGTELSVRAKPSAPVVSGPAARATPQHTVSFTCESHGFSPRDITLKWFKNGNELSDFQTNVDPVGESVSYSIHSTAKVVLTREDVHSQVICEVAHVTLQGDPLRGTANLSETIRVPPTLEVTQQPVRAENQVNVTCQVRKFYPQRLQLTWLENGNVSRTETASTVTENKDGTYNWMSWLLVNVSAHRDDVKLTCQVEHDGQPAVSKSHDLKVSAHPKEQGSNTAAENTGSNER
SIRPγ on peripheral human CD3+ T cells (human), sequence (Q9P1W8 29-387): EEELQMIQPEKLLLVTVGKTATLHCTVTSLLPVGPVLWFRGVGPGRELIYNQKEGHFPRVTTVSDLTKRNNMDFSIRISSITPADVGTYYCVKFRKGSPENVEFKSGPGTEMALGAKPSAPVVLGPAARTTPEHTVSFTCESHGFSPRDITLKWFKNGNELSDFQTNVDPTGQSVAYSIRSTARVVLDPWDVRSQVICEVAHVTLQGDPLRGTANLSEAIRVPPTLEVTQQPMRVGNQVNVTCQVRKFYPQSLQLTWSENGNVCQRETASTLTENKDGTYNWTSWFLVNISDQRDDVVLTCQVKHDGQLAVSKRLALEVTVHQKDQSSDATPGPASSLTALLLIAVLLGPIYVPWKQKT

Substance | % of positive T-cells [1] [%] | % of positive T-cells [2] [%] | Kd [3] [nM] | koff [3] [s⁻¹] | kon [3] [M⁻¹ s⁻¹] | EC50 [4]
LSB2.20 (specific anti-SIRPγ antibody) | 98.4 | 91.4 |  |  |  | 
SE5A5 (BioLegend BLE323802), antibody recognizing SIRP a/B | 7.69 | 3.72 | 38.7 | 0.000949 | 24500 | 0.16 nM and 0.024 µg/mL
anti-SIRPa antibody SE7C2 (Santa Cruz sc-23863) |  |  | 1670 | 0.01 | 5980 | 
anti-SIRPb antibody B4B6 | 0.25 | 0.87 |  |  |  | 
